# Patent US20240279318A1 (NANJING LEGEND BIOTECH, published 2024)
# Target: T1, AFP158/HLA-A*02:01 complex (human)
# T1 construct: biotinylated on the BSP by BirA for ELISA and panning; also called biotinylated AFP158/HLA-A*02:01 complex; Bio-AFP158
# Test: SPR, scFv-mIgG2aFc from supernatant captured, complex as analyte
# Method: (§1) The binding affinity between selected antibodies and AFP158/HLA-A*02:01 complex was determined by surface plasmon resonance (SPR) on a BIAcore T200 instrument (GE Healthcare). The experiment was carried out as follows. The purified sdAb/scFv-mIgG2aFc protein were captured through mIgG2a-Fc onto the sensorchip. […] On-rate (kₐ) and off-rate (kd) were calculated based on association and dissociation curve, and were used to estimate the equilibrium dissociation constant (KD).
# (§2) Humanized heavy chains and light chains were combined, and used to produce a series of humanized antibodies. These antibodies were synthesized as scFv-mIgG2aFc and transiently produced using HEK293 cells. The antibodies in the supernatant were subjected to SPR affinity assessment.
Kd,koff,kon,Binder
380 nM,0.071 s⁻¹,190000 M⁻¹ s⁻¹,"AS170036 VL1VH2 scFv-mIgG2aFc (Fc fusion, not shown: a dimerising Fc or GST) scFv: QSALTQPRSVSGSPGQSVTISCAGTSSDVGSENYVSWYQQHPGKAPKLMIYQVNKRASGVPDRFSGSKSGNTASLTISGLQAEDEADYYCASYRSSDHNIVFGGGTKLTVLGGGGSGGGGSGGGGSEVQLVESGGGLVQPGGSLRLSCTASGFTFSSYAMSWVRQAPGKGLEWVSTINSGTGSPYYADSVKGRFTISRDNSKNTLYLQMNSLRAEDTAMYYCAKNFFDGSWFLGPPAMDYWGQGTLVTVSS"
340 nM,0.095 s⁻¹,280000 M⁻¹ s⁻¹,"AS170036 VL2VH1 scFv-mIgG2aFc (Fc fusion, not shown: a dimerising Fc or GST) scFv: QSALTQPRSVSGSPGQSVTISCAGTSSDVGSENYVSWYQQHPGKAPKLLIYQVNKRASGIPDRFSGSKSGNTASLTISGLQAEDEADYYCASYRSSDHNIVFGGGTKLTVLGGGGSGGGGSGGGGSEVQLVESGGGLVQPGGSLRLSCAASGFTFSSYAMSWVRQAPGKGLEWVSTINSGTGSPYYADSVKGRFTISRDNSKNTLYLQMNSLRAEDTAVYYCAKNFFDGSWFLGPPAMDYWGQGTLVTVSS"
390 nM,0.072 s⁻¹,190000 M⁻¹ s⁻¹,"AS170036 VL2VH2 scFv-mIgG2aFc (Fc fusion, not shown: a dimerising Fc or GST) scFv: QSALTQPRSVSGSPGQSVTISCAGTSSDVGSENYVSWYQQHPGKAPKLLIYQVNKRASGIPDRFSGSKSGNTASLTISGLQAEDEADYYCASYRSSDHNIVFGGGTKLTVLGGGGSGGGGSGGGGSEVQLVESGGGLVQPGGSLRLSCTASGFTFSSYAMSWVRQAPGKGLEWVSTINSGTGSPYYADSVKGRFTISRDNSKNTLYLQMNSLRAEDTAMYYCAKNFFDGSWFLGPPAMDYWGQGTLVTVSS"

# Target: T1, AFP158/HLA-A*02:01 complex
# Test: as above
# Remark: another data set of the same source
# Method: as §1, §2
Kd,koff,kon,Binder
320 nM,0.029 s⁻¹,91000 M⁻¹ s⁻¹,"AS179723 VL1g1VH1g1 scFv-mIgG2aFc (Fc fusion, not shown: a dimerising Fc or GST) scFv: QSVLTQPPSASGTPGQRVTISCSGSSNNIGGNYVNWYQQLPGTAPKLLIYDNKNRPSGVPDRFSGSKSGTSASLAISGLQSEDEADYYCASWDDSLSAVVFGGGTKLTVLGGGGSGGGGSGGGGSEVQLVESGGGLVQPGGSLRLSCAASGFTFLNYAMSWVRQAPGKGLEWVSSNSGAGSTYYADSVKGRFTISRDNSKNTLYLQMNSLRAEDTAVYYCAKGTNVGSWSSLHYWGQGTLVTVSS"
56 nM,,,"AS179723 VL1g1VH1g1-N73Y scFv-mIgG2aFc (Fc fusion, not shown: a dimerising Fc or GST, Humanized) QSVLTQPPSASGTPGQRVTISCSGSSNNIGGNYVNWYQQLPGTAPKLLIYDNKNRPSGVPDRFSGSKSGTSASLAISGLQSEDEADYYCASWDDSLSAVVFGGGTKLTVLGGGGSGGGGSGGGGSEVQLVESGGGLVQPGGSLRLSCAASGFTFLNYAMSWVRQAPGKGLEWVSSNSGAGSTYYADSVKGRFTISRDYSKNTLYLQMNSLRAEDTAVYYCAKGTNVGSWSSLHYWGQGTLVTVSS"
360 nM,0.034 s⁻¹,93000 M⁻¹ s⁻¹,"AS179723 VL1g1VH1 scFv-mIgG2aFc (Fc fusion, not shown: a dimerising Fc or GST) scFv: QSVLTQPPSASGTPGQRVTISCSGSSNNIGGNYVNWYQQLPGTAPKLLIYDNKNRPSGVPDRFSGSKSGTSASLAISGLQSEDEADYYCASWDDSLSAVVFGGGTKLTVLGGGGSGGGGSGGGGSEVQLVESGGGLVQPGGSLRLSCAASGFTFLNYAMSWVRQAPGKGLEWVSSNSGAGSTYYSDSVKGRFTISRDNSKNTLYLQMNSLRAEDTAVYYCAKGTNVGSWSSLHYWGQGTLVTVSS"
310 nM,0.03 s⁻¹,99000 M⁻¹ s⁻¹,"AS179723 VL1VH1g1 scFv-mIgG2aFc (Fc fusion, not shown: a dimerising Fc or GST) scFv: QSVLTQPPSASGTPGQRVTISCTGSSNNIGGNYVNWYQQLPGTAPKLLIYDNKNRPSGVPDRFSGSKSGTSASLAISGLQSEDEADYYCASWDDSLSAVVFGGGTKLTVLGGGGSGGGGSGGGGSEVQLVESGGGLVQPGGSLRLSCAASGFTFLNYAMSWVRQAPGKGLEWVSSNSGAGSTYYADSVKGRFTISRDNSKNTLYLQMNSLRAEDTAVYYCAKGTNVGSWSSLHYWGQGTLVTVSS"
320 nM,0.031 s⁻¹,98000 M⁻¹ s⁻¹,"AS179723 VL1VH1 scFv-mIgG2aFc (Fc fusion, not shown: a dimerising Fc or GST) scFv: QSVLTQPPSASGTPGQRVTISCTGSSNNIGGNYVNWYQQLPGTAPKLLIYDNKNRPSGVPDRFSGSKSGTSASLAISGLQSEDEADYYCASWDDSLSAVVFGGGTKLTVLGGGGSGGGGSGGGGSEVQLVESGGGLVQPGGSLRLSCAASGFTFLNYAMSWVRQAPGKGLEWVSSNSGAGSTYYSDSVKGRFTISRDNSKNTLYLQMNSLRAEDTAVYYCAKGTNVGSWSSLHYWGQGTLVTVSS"

# Target: T1, AFP158/HLA-A*02:01 complex
# Test: as above
# Remark: another data set of the same source
# Method: as §1, §2
Kd,koff,kon,Binder
450 nM,0.057 s⁻¹,130000 M⁻¹ s⁻¹,"AS179732 VL1g1VH1g1 scFv-mIgG2aFc (Fc fusion, not shown: a dimerising Fc or GST; small tags and cut ends) scFv: QSVLTQPPSASGTPGQRVTISCSGSSSNIGGNYVNWYQQLPGTAPKLLIYDNSNRASGVPDRFSGSKSGTSASLAISGLQSEDEADYYCASWDDSLSGAVFGGGTKLTVLGGGGSGGGGSGGGGSEVQLVESGGGLVQPGGSLRLSCAASGFTFLNYAMSWVRQAPGKGLEWVSSNSGAGSTYYADSVKGRFTISRDNSKNTLYLQMNSLRAEDTAVYYCAKGTNVGSWSSLHYWGQGTLVTVSS"
520 nM,0.065 s⁻¹,130000 M⁻¹ s⁻¹,"AS179732 VL1VH1g1 scFv-mIgG2aFc (Fc fusion, not shown: a dimerising Fc or GST; small tags and cut ends) scFv: QSVLTQPPSASGTPGQRVTISCTGSSSNIGGNYVNWYQQLPGTAPKLLIYDNSNRASGVPDRFSGSKSGTSASLAISGLQSEDEADYYCASWDDSLSGAVFGGGTKLTVLGGGGSGGGGSGGGGSEVQLVESGGGLVQPGGSLRLSCAASGFTFLNYAMSWVRQAPGKGLEWVSSNSGAGSTYYADSVKGRFTISRDNSKNTLYLQMNSLRAEDTAVYYCAKGTNVGSWSSLHYWGQGTLVTVSS"
450 nM,0.056 s⁻¹,120000 M⁻¹ s⁻¹,"AS179732 VL1g1VH1 scFv-mIgG2aFc (Fc fusion, not shown: a dimerising Fc or GST; small tags and cut ends) scFv: QSVLTQPPSASGTPGQRVTISCSGSSSNIGGNYVNWYQQLPGTAPKLLIYDNSNRASGVPDRFSGSKSGTSASLAISGLQSEDEADYYCASWDDSLSGAVFGGGTKLTVLGGGGSGGGGSGGGGSEVQLVESGGGLVQPGGSLRLSCAASGFTFLNYAMSWVRQAPGKGLEWVSSNSGAGSTYYSDSVKGRFTISRDNSKNTLYLQMNSLRAEDTAVYYCAKGTNVGSWSSLHYWGQGTLVTVSS"
54 nM,,,"AS179732 VL1g1VH1g1-N73Y scFv-mIgG2aFc (Fc fusion, not shown: a dimerising Fc or GST, Humanized) QSVLTQPPSASGTPGQRVTISCSGSSSNIGGNYVNWYQQLPGTAPKLLIYDNSNRASGVPDRFSGSKSGTSASLAISGLQSEDEADYYCASWDDSLSGAVFGGGTKLTVLGGGGSGGGGSGGGGSEVQLVESGGGLVQPGGSLRLSCAASGFTFLNYAMSWVRQAPGKGLEWVSSNSGAGSTYYADSVKGRFTISRDYSKNTLYLQMNSLRAEDTAVYYCAKGTNVGSWSSLHYWGQGTLVTVSS"
440 nM,0.056 s⁻¹,130000 M⁻¹ s⁻¹,"AS179732 VL1VH1 scFv-mIgG2aFc (Fc fusion, not shown: a dimerising Fc or GST) scFv: QSVLTQPPSASGTPGQRVTISCTGSSSNIGGNYVNWYQQLPGTAPKLLIYDNSNRASGVPDRFSGSKSGTSASLAISGLQSEDEADYYCASWDDSLSGAVFGGGTKLTVLGGGGSGGGGSGGGGSEVQLVESGGGLVQPGGSLRLSCAASGFTFLNYAMSWVRQAPGKGLEWVSSNSGAGSTYYSDSVKGRFTISRDNSKNTLYLQMNSLRAEDTAVYYCAKGTNVGSWSSLHYWGQGTLVTVSS"
